To fix the notation:
B1: head-to-tail cyclic … peptide (peptide)
peptide: LYDHPQNGGQ
modifications: not checked
B2: head-to-tail cyclic … peptide (peptide)
peptide: QNDHPQNGGQ
modifications: not checked
B3: head-to-tail cyclic NQpWQ peptide (peptide)
peptide: NQPWQ
modifications: not checked
B4: linear NH2-…-COOH peptide (peptide)
peptide: H-LYDHPQNGGQ-OH
B5: linear NH2-…-COOH peptide (peptide)
peptide: H-QNDHPQNGGQ-OH

The assay deals with streptavidin, P22629. As to the kind of experiment: SPR, BIAcore X100, streptavidin on CM5 chip, peptide in solution. On the technique in general: SPR reads the build-up and loss of mass on a sensor chip optically.
Sequence of streptavidin, P22629 (P22629 37-163 limits assumed): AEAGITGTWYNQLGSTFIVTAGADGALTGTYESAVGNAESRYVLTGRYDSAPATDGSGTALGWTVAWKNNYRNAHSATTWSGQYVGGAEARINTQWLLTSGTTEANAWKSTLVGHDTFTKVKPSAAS
For orientation: Kd means the concentration at which binding is half-saturated. Lower therefore signals tighter binding. B1 came in with a Kd of 9.4 µM.

B2 displayed an equilibrium dissociation constant (Kd) of 10.8 µM.

The molecule B3 gave a Kd of 61.3 µM.

Consider B4, for which the Kd turned out to be 100 µM.

In turn, B5 gave a Kd of 320 µM.
